Measured values from the supplement of paper PMC9732359.
± gives the uncertainty stated by the source.

Experiment: protein stability index of a GFP-peptide fusion (yeast GPS) (PSI 1-4); higher = more stable; sorted into four equal gates, so the index is relative within each strain
How it was run: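 Yeast carrying a pooled library were grown to mid-log phase in leucine-free medium. Each library plasmid expresses Cherry and has a tiled 17-residue yeast protein peptide fused downstream of GFP. Cells were sorted into four equal gates by GFP/Cherry ratio, and plasmids from each gate were PCR-amplified, Illumina-sequenced and assigned to strains by barcode. Summing, across gates, the read frequency times the gate number gave each peptide's protein stability index.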

IRPLSKPMTAYARADTH [RRP6]
protein stability index (doa10∆): 2.74 ± 0.08
protein stability index (pdr5∆): 2.9 ± 0.083
protein stability index (san1∆): 2.8 ± 0.065
protein stability index (ubr1∆): 2.89 ± 0.14

DLKKKLNSLKDERSQGE [SMC4]
protein stability index (doa10∆): 3.43 ± 0.14
protein stability index (pdr5∆): 3.16 ± 0.25
protein stability index (san1∆): 3.06 ± 0.16
protein stability index (ubr1∆): 3.71 ± 0.25

VMWGKVTRTHGNSGVVR [RPL33A]
protein stability index (doa10∆): 2.83 ± 0.071
protein stability index (pdr5∆): 2.94 ± 0.075
protein stability index (san1∆): 2.97 ± 0.051
protein stability index (ubr1∆): 2.98 ± 0.07

YVGEVIKIVSDKKVLVK [RPT6]
protein stability index (doa10∆): 3.03 ± 0.058
protein stability index (pdr5∆): 2.9 ± 0.055
protein stability index (san1∆): 3.08 ± 0.067
protein stability index (ubr1∆): 2.94 ± 0.073

KGGKGLGKGGAKRHRKI [HHF1]
protein stability index (doa10∆): 3.7 ± 0.22
protein stability index (pdr5∆): 3.59 ± 0.19
protein stability index (san1∆): 3.65 ± 0.067
protein stability index (ubr1∆): 3.59 ± 0.053

SRTRAHAQSKREGRHSG [RPL19A]
protein stability index (doa10∆): 2.87 ± 0.076
protein stability index (pdr5∆): 2.85 ± 0.07
protein stability index (san1∆): 2.83 ± 0.042
protein stability index (ubr1∆): 2.99 ± 0.037

CWLSNIDIQTQDLNQRF [RRI1]
protein stability index (doa10∆): 2.72 ± 0.11
protein stability index (pdr5∆): 3.23 ± 0.11
protein stability index (san1∆): 3.24 ± 0.072
protein stability index (ubr1∆): 3.17 ± 0.079

KREKRVFLKHSLSIKLA [RPN6]
protein stability index (doa10∆): 2.58 ± 0.083
protein stability index (pdr5∆): 3.22 ± 0.09
protein stability index (san1∆): 2.75 ± 0.086
protein stability index (ubr1∆): 2.81 ± 0.094

DVYNRELDEHTTQIDLF [BRR2]
protein stability index (doa10∆): 3.07 ± 0.07
protein stability index (pdr5∆): 2.73 ± 0.056
protein stability index (san1∆): 2.9 ± 0.046
protein stability index (ubr1∆): 2.41 ± 0.04

QRETSGMIVISMENYHL [SRB8]
protein stability index (doa10∆): 2.16 ± 0.04
protein stability index (pdr5∆): 1.99 ± 0.04
protein stability index (san1∆): 2.09 ± 0.042
protein stability index (ubr1∆): 2.35 ± 0.033

KVAPAPFGAKSTKSNKT [RPL8A]
protein stability index (doa10∆): 2.68 ± 0.1
protein stability index (pdr5∆): 2.84 ± 0.076
protein stability index (san1∆): 2.74 ± 0.071
protein stability index (ubr1∆): 2.94 ± 0.068

IYKRGQAGVTKASVTIV [SMC2]
protein stability index (doa10∆): 1.61 ± 0.093
protein stability index (pdr5∆): 1.73 ± 0.083
protein stability index (san1∆): 1.78 ± 0.13
protein stability index (ubr1∆): 1.16 ± 0.11

VDPLKSLEDKILRMGAF [RRI1]
protein stability index (doa10∆): 3.19 ± 0.12
protein stability index (pdr5∆): 3.04 ± 0.14
protein stability index (san1∆): 2.88 ± 0.12
protein stability index (ubr1∆): 2.94 ± 0.094

PLYARYINVNPQEETIT [ECM29]
protein stability index (doa10∆): 2.74 ± 0.07
protein stability index (pdr5∆): 2.85 ± 0.059
protein stability index (san1∆): 2.9 ± 0.067
protein stability index (ubr1∆): 2.69 ± 0.041

PTHIWNAKRSHMMKRWG [POP1]
protein stability index (doa10∆): 2.35 ± 0.075
protein stability index (pdr5∆): 2.24 ± 0.068
protein stability index (san1∆): 1.98 ± 0.12
protein stability index (ubr1∆): 2.26 ± 0.067

LTPIQKKIMDETPSRLL [ITC1]
protein stability index (doa10∆): 3.33 ± 0.074
protein stability index (pdr5∆): 3.39 ± 0.062
protein stability index (san1∆): 3.16 ± 0.049
protein stability index (ubr1∆): 3.39 ± 0.039

RVFNAKDTTGPKAISNF [YCS4]
protein stability index (doa10∆): 2.9 ± 0.1
protein stability index (pdr5∆): 2.82 ± 0.13
protein stability index (san1∆): 3.18 ± 0.11
protein stability index (ubr1∆): 2.9 ± 0.1

SPQLTAIIGLKSGTSHD [SNF12]
protein stability index (doa10∆): 1.52 ± 0.067
protein stability index (pdr5∆): 1.82 ± 0.074
protein stability index (san1∆): 1.84 ± 0.12
protein stability index (ubr1∆): 1.66 ± 0.065

NFKKFNERRKDLAERAS [SMC3]
protein stability index (doa10∆): 1.47 ± 0.061
protein stability index (pdr5∆): 1.97 ± 0.073
protein stability index (san1∆): 1.57 ± 0.11
protein stability index (ubr1∆): 2.05 ± 0.097

SKICLSHFSLDQFITSL [ITC1]
protein stability index (doa10∆): 2.21 ± 0.06
protein stability index (pdr5∆): 2.86 ± 0.076
protein stability index (san1∆): 2.17 ± 0.081
protein stability index (ubr1∆): 2.69 ± 0.057

KARTNLHQHVVLKCLKS [RPC34]
protein stability index (doa10∆): 2.91 ± 0.19
protein stability index (pdr5∆): 2.64 ± 0.16
protein stability index (san1∆): 2.33 ± 0.14
protein stability index (ubr1∆): 2.23 ± 0.23

VEYKLTFVPTNSDKPRD [DIS3]
protein stability index (doa10∆): 1.21 ± 0.14
protein stability index (pdr5∆): 1.31 ± 0.094
protein stability index (san1∆): 1.19 ± 0.24
protein stability index (ubr1∆): 1.05 ± 0.11

SAENRDEKDYLTNQQPK [CSE2]
protein stability index (doa10∆): 2.76 ± 0.063
protein stability index (pdr5∆): 2.79 ± 0.062
protein stability index (san1∆): 2.54 ± 0.048
protein stability index (ubr1∆): 2.77 ± 0.038

LCQINKCSTRGLSTDHT [YML103C/NUP188]
protein stability index (pdr5∆): 2.47 ± 0.23
protein stability index (ubr1∆): 3.13 ± 0.18

TDKVSLSQPVSASKHEY [SIR4]
protein stability index (doa10∆): 2.29 ± 0.079
protein stability index (pdr5∆): 2.53 ± 0.057
protein stability index (san1∆): 2.24 ± 0.082
protein stability index (ubr1∆): 1.95 ± 0.041

SFKIFVDVLVISSHSHP [RRP42]
protein stability index (doa10∆): 1.21 ± 0.043
protein stability index (pdr5∆): 1.21 ± 0.047
protein stability index (san1∆): 1.19 ± 0.07
protein stability index (ubr1∆): 1.39 ± 0.032

NEKKTETNAKPFSFSSA [YLR335W/NUP2]
protein stability index (doa10∆): 3.32 ± 0.11
protein stability index (pdr5∆): 3.28 ± 0.088
protein stability index (san1∆): 3.33 ± 0.041
protein stability index (ubr1∆): 3.36 ± 0.079

PRSDDLEATWNFIEPGI [CDC53]
protein stability index (doa10∆): 3.04 ± 0.15
protein stability index (pdr5∆): 3.29 ± 0.13
protein stability index (san1∆): 3.15 ± 0.096
protein stability index (ubr1∆): 3.02 ± 0.11

LEPGCSVLLHHKTMSIV [RPT2]
protein stability index (doa10∆): 1.39 ± 0.067
protein stability index (pdr5∆): 1.58 ± 0.049
protein stability index (san1∆): 1.38 ± 0.087
protein stability index (ubr1∆): 1.61 ± 0.04

APTRELVQQIQKETQKV [PRP28]
protein stability index (doa10∆): 2.8 ± 0.087
protein stability index (pdr5∆): 3.14 ± 0.078
protein stability index (san1∆): 2.95 ± 0.06
protein stability index (ubr1∆): 3.14 ± 0.065

QQQQQNTNNNDTIATSA [GAL11]
protein stability index (doa10∆): 2.457 ± 0.021
protein stability index (pdr5∆): 2.576 ± 0.02
protein stability index (san1∆): 2.478 ± 0.021
protein stability index (ubr1∆): 2.603 ± 0.018

SPELSLQRHLSLGIRPC [RRP43]
protein stability index (doa10∆): 2.54 ± 0.041
protein stability index (pdr5∆): 2.65 ± 0.053
protein stability index (san1∆): 2.73 ± 0.052
protein stability index (ubr1∆): 3.06 ± 0.048

DSEIEISSEKLLTLTNA [RPP1A]
protein stability index (doa10∆): 2.99 ± 0.063
protein stability index (pdr5∆): 2.92 ± 0.073
protein stability index (san1∆): 2.93 ± 0.061
protein stability index (ubr1∆): 3.12 ± 0.055

LGNTSSVANTPSEIPDA [SWI3]
protein stability index (doa10∆): 2.95 ± 0.059
protein stability index (pdr5∆): 3.06 ± 0.062
protein stability index (san1∆): 3.03 ± 0.091
protein stability index (ubr1∆): 2.98 ± 0.047

LLVPLALLTKRLYPHWD [CSN12]
protein stability index (doa10∆): 2.33 ± 0.066
protein stability index (pdr5∆): 2.01 ± 0.063
protein stability index (san1∆): 1.83 ± 0.092
protein stability index (ubr1∆): 1.5 ± 0.037

DRAQNSYQPMYQRPMQV [SSN3]
protein stability index (doa10∆): 1.55 ± 0.047
protein stability index (pdr5∆): 1.73 ± 0.057
protein stability index (san1∆): 1.55 ± 0.16
protein stability index (ubr1∆): 2.64 ± 0.041

ETEAEEDHMLKKIENTM [RPO21]
protein stability index (pdr5∆): 3.37 ± 0.18
protein stability index (ubr1∆): 3.46 ± 0.15

KESDDPSIPLVIIRRLK [POP1]
protein stability index (doa10∆): 3.12 ± 0.1
protein stability index (pdr5∆): 2.07 ± 0.064
protein stability index (san1∆): 3.06 ± 0.068
protein stability index (ubr1∆): 3.05 ± 0.093

KDRISSCSSKEKTLVLE [SMC4]
protein stability index (doa10∆): 2.58 ± 0.097
protein stability index (pdr5∆): 2.6 ± 0.083
protein stability index (san1∆): 2.45 ± 0.12
protein stability index (ubr1∆): 2.88 ± 0.098

VFSHAQTAVTCESCSTI [RPS27A]
protein stability index (doa10∆): 1.47 ± 0.091
protein stability index (pdr5∆): 1.2 ± 0.076
protein stability index (san1∆): 1.16 ± 0.13
protein stability index (ubr1∆): 1.51 ± 0.076

QLDFTEFDEQYGTRPLV [SNF2]
protein stability index (doa10∆): 3.26 ± 0.048
protein stability index (pdr5∆): 3.02 ± 0.047
protein stability index (san1∆): 3.21 ± 0.039
protein stability index (ubr1∆): 2.81 ± 0.032

YWYEQDSAKEWPQSKNC [RPB3]
protein stability index (doa10∆): 3.4 ± 0.12
protein stability index (pdr5∆): 3.3 ± 0.13
protein stability index (san1∆): 2.98 ± 0.13
protein stability index (ubr1∆): 3.43 ± 0.22

LRELSCCINAAFLALVD [RRP46]
protein stability index (doa10∆): 2.38 ± 0.059
protein stability index (pdr5∆): 2.81 ± 0.074
protein stability index (san1∆): 2.88 ± 0.051
protein stability index (ubr1∆): 2.65 ± 0.065

LIKERQEMERKLEKKRN [ESC2]
protein stability index (san1∆): 3.1 ± 0.15

GPANNPNEFMQFKSKEV [PRP8]
protein stability index (doa10∆): 3.1 ± 0.11
protein stability index (pdr5∆): 3.31 ± 0.083
protein stability index (san1∆): 3.19 ± 0.044
protein stability index (ubr1∆): 3.43 ± 0.11

TLKKEWLKEYEDETLRR [YIL149C/MLP2]
protein stability index (doa10∆): 3.12 ± 0.21
protein stability index (pdr5∆): 3.2 ± 0.18
protein stability index (ubr1∆): 3.52 ± 0.12

SSNASFNNQGKLDLFKY [MED1]
protein stability index (doa10∆): 2.93 ± 0.039
protein stability index (pdr5∆): 3.03 ± 0.038
protein stability index (san1∆): 2.71 ± 0.032
protein stability index (ubr1∆): 3.04 ± 0.041

EGRLYQVEYALESISHA [PRE9]
protein stability index (doa10∆): 2.09 ± 0.056
protein stability index (pdr5∆): 2.19 ± 0.068
protein stability index (san1∆): 1.98 ± 0.086
protein stability index (ubr1∆): 1.85 ± 0.048

NVVEIWVFSYLRWFELK [SIR3]
protein stability index (doa10∆): 1.31 ± 0.088
protein stability index (pdr5∆): 1.38 ± 0.066
protein stability index (san1∆): 2.17 ± 0.16
protein stability index (ubr1∆): 2.21 ± 0.063

WGTLQSVSPQMNAILTD [SMD1]
protein stability index (doa10∆): 2.83 ± 0.11
protein stability index (pdr5∆): 2.66 ± 0.1
protein stability index (san1∆): 2.75 ± 0.057
protein stability index (ubr1∆): 2.91 ± 0.074

KCIPKKGTVFQFEIPIS [POP4]
protein stability index (doa10∆): 1.44 ± 0.16
protein stability index (pdr5∆): 1.68 ± 0.087
protein stability index (san1∆): 1.49 ± 0.29
protein stability index (ubr1∆): 1.17 ± 0.052

EAESQLRAAQQQWGNDF [FAS2]
protein stability index (doa10∆): 3.12 ± 0.072
protein stability index (pdr5∆): 3.35 ± 0.063
protein stability index (san1∆): 3.07 ± 0.072
protein stability index (ubr1∆): 3.23 ± 0.044

FIMASVGKYDKAIELLE [SRP72]
protein stability index (doa10∆): 2.37 ± 0.12
protein stability index (pdr5∆): 2.38 ± 0.11
protein stability index (san1∆): 2.54 ± 0.13
protein stability index (ubr1∆): 3.1 ± 0.2

ELRRFESSINTHPHAAD [SKI6]
protein stability index (doa10∆): 2.73 ± 0.081
protein stability index (pdr5∆): 3.08 ± 0.054
protein stability index (san1∆): 2.56 ± 0.064
protein stability index (ubr1∆): 2.87 ± 0.055
